B1: Fab 3B4 (Fab, V domains shown)
VH: QVQLHQPGAELVKPGASVNLSCKASGYTFTSYWMHWVKQRPGQGLEWIGEINPSSGRANYNEKFKNKATLTVDKSSITAYMHLSSLTSEDSAVYYCHWDYYAMDYWGQGTSVTVSS
VL: DIVLTQSPATLSVTPGDSVSLSCRASQSISNNLHWYQQKSHESPRLLFKSASQSISGIPSRFSGSGSGTDFTLSINSVETEDFGMYFCQQTNSWPLTFGTGTKLDLK
notes: source: CHO-S, electroporated, purified from supernatant (StrepTrap HP)
B2: Fab 3H4 (Fab, V domains shown)
VH: QVQLKESGPGLVAPSQSLSISCTVSGFSLTTFGIHWIRQPPGKGLEWLGVIWAAGTTNYNSTLKSRLTITKDNSRSQVFLKMNSLQTYDTAIYYCVREDYDYFFGLDYWGQGTSVTVSS
VL: QAVVTQESALTTSPGETVTLTCRSSTGAVTTSNYASWVQEKPDHLFIGLIGGTNNRAPGVPARFSGSLIGDKAALTITGAQTDDEAIYFCALWFSNHWVFGGGTKLTVL
notes: as for B1

Legend:
[1] = biological target: HAstV1 capsid spike, biotinylated (human astrovirus 1 (HAstV1)) (UniProt O12792); assay: BLI; competition: biotinylated HAstV1 spike (0.5 ug/mL) on streptavidin biosensors, saturated with 150 nM Fab 3H4 or 250 nM Fab 3B4 for 600 s, then dipped into 2 uM FcRn for 300 s; Octet Kinetics Buffer; FcRn shift normalised to FcRn on spike without Fab (100%) and to self-Fab control (0%); triplicate
[2] = biological target: T1, HAstV1 capsid spike, histidine-tagged (Human astrovirus 1 (HAstV1), GenBank …); assay: BLI; histidine-tagged HAstV1 spike (0.5 ug/mL) loaded on Anti-Penta-His (HIS1K) biosensors; Fab in solution (3H4: 2.5, 5, 10, 20 nM; 3B4: 20, 40, 80, 160 nM); Octet Kinetics Buffer (PBS pH 7.4 + 0.1% BSA + 0.02% Tween 20); association 180 s, dissociation 600 s; global 1:1 fit; average of three replicates; conditions: both partners purified
T1 construct: also called HAstV1 spike; histidine-tagged HAstV1 spike
T1 chain: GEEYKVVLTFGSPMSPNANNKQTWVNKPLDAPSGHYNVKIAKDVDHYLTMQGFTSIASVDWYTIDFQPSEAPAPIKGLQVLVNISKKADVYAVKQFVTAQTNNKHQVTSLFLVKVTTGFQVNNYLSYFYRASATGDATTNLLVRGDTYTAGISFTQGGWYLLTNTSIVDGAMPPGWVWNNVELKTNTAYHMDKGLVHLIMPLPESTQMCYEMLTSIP

Binder	FcRn binding (%) left on spike saturated with the Fab [1]	Kd [2]
B1	40%	11.8 nM
B2	4%	0.49 nM
